{"source": "patent US11066655B2", "about": "“RNA polymerase, methods of purification and methods of use” (President and Fellows of Harvard College, priority 2013, dated 2021)", "molecules": {"B1": {"name": "Syn5 RNAP-NP: Syn5 RNAP from modified gene (SEQ ID NO:83) with internal Syn5 promoter removed by silent mutations; same amino acids as wild-type (protein)", "chain": "MSFDLIARQLQRETEAAELARKRLQDARREANERSYASSNIESRKAIATFLDPIAQRIGERLFTLRRGTGAVDAAEVYKHLKNADHHHLALITMKTALDVLGKDPEPQIQQLTTAIGRNIQLELRLTYYAEENPELYKQASRFFHAGTGTRQKATVIKLKFNREGIEWDQWSRVTCHKVGQWLMLAMADVTGWIERATDRTSGGRKTKTRICYSREFLQHRDTILAAAEQLAFCQWPMLCPPIEWSNDHNGGYLSEQIRRVNPLIRKTGPLGTRKQGDIPLAMLNNLQGQAYKVNPEVLDIANHCYESNVTVGKFIRHAPLPVPPSPGEDCTEDQLTAYKRARREAEDFNAQISQKNWRTTEVMYVARKYADEASFWMPASFDYRGRVYFLNTALNPQGTDFDKALLYFAEEGPVNEWWLSFHVATTYGLDKETMVNRVQWARDNHELIDRIASDPVRHTEWHDADEPWCFLAACLEYKACVIDGTKQTSGLPIGIDATCSGLQHLAAMTRCGRTAALVNVTPTDKPADAYKTVAQASLKHLPKEQHEWITRKVTKRPVMCTPYGVTMSSARGYIRDQLVKDGHKEDLRSPGVLNGIVKAIFNEAIPEVIPGPVQVMAWLKRSAGQIIDRGDSTITWTTPSGFEVVQDLKKSKTYEVKTRIMGGARIKLQVGDGFTDEPDRDHHKSALAPNVVHSNDASLLHLTFAFWDKPFTVIHDCVLGRSCDMDQMGSDIRLHFAEMYKADVMQDWADQVGVELPVDLIKNTLDIDSVNQSLYFFS", "modifications": "Syn5 RNAP-NP", "notes": "same amino acids as wild-type"}, "B2": {"name": "Syn5 RNA polymerase Y564F: Syn5 RNA polymerase Y564F mutant for the incorporation of 2′-F-dNTPs (protein)", "chain": "MSFDLIARQLQRETEAAELARKRLQDARREANERSYASSNIESRKAIATFLDPIAQRIGERLFTLRRGTGAVDAAEVYKHLKNADHHHLALITMKTALDVLGKDPEPQIQQLTTAIGRNIQLELRLTYYAEENPELYKQASRFFHAGTGTRQKATVIKLKFNREGIEWDQWSRVTCHKVGQWLMLAMADVTGWIERATDRTSGGRKTKTRICYSREFLQHRDTILAAAEQLAFCQWPMLCPPIEWSNDHNGGYLSEQIRRVNPLIRKTGPLGTRKQGDIPLAMLNNLQGQAYKVNPEVLDIANHCYESNVTVGKFIRHAPLPVPPSPGEDCTEDQLTAYKRARREAEDFNAQISQKNWRTTEVMYVARKYADEASFWMPASFDYRGRVYFLNTALNPQGTDFDKALLYFAEEGPVNEWWLSFHVATTYGLDKETMVNRVQWARDNHELIDRIASDPVRHTEWHDADEPWCFLAACLEYKACVIDGTKQTSGLPIGIDATCSGLQHLAAMTRCGRTAALVNVTPTDKPADAYKTVAQASLKHLPKEQHEWITRKVTKRPVMCTPFGVTMSSARGYIRDQLVKDGHKEDLRSPGVLNGIVKAIFNEAIPEVIPGPVQVMAWLKRSAGQIIDRGDSTITWTTPSGFEVVQDLKKSKTYEVKTRIMGGARIKLQVGDGFTDEPDRDHHKSALAPNVVHSNDASLLHLTFAFWDKPFTVIHDCVLGRSCDMDQMGSDIRLHFAEMYKADVMQDWADQVGVELPVDLIKNTLDIDSVNQSLYFFS", "modifications": "Amino acid sequence of a cyanophage Syn5 RNAP", "notes": "Syn5 RNA polymerase Y564F mutant for the incorporation of 2′-F-dNTPs"}}, "key": {"[1]": {"assay": "Activity of Syn5 RNAP-NP (gel)", "assay_type": "biochemical", "description": "FIG. 18 depicts gels showing expression and activity of Syn5 RNAP-NP.\n(§1) The wild-type Syn5 RNA polymerase gene was modified as follows to improve expression in E. coli cells. Nucleotides in Syn5 RNA polymerase gene (No. 808-825) CCA TTG GGC ACC CGT AAG (SEQ ID NO:78) encoding Pro Leu Gly Thr Arg Lys (SEQ ID NO:79) were mutated to CCT CTT GGT ACG CGC AAG (SEQ ID NO:80) without changing the amino acids encoded, and the Syn5 promoter A TTG GGC ACC CGT AA (SEQ ID NO:81) within this region was removed (FIG. 16). Thus, when expressed in E. coli, the enzyme produced by the modified gene would not start transcription from its own gene, enabling the cells to grow much faster (FIG. 17) and yield at least 5 times more enzyme than cells expressing wild-type Syn5 RNAP."}, "[2]": {"tested_on": "E. coli BL21 (DE3)", "assay": "Growth curve of E. coli expressing Syn5 RNA polymerase from wild-type or modified vector", "assay_type": "cell-based", "conditions": "versus vector expressing wild-type Syn5 RNAP", "description": "FIG. 17 graphically depicts a growth curve of E. coli BL21 (DE3) expressing Syn5 RNA polymerase from wild-type (WT, Syn5 RNAP-pET24a) or modified (Syn5 RNAP-NP-pET24a) vector.\nas §1\nE. coli BL21(DE3) was transformed with plasmid Syn5 RNAP-NP-pET24 encoding an N-terminal His-tagged Syn5 RNA polymerase. Cells were grown at 37° C. until they reached an OD of 1.2, at which point the temperature was reduced to 25° C. and IPTG was added at final concentration of 0.5 mM. Cells were grown an additional 4 hours before collection. The purification procedure used is described in “Zhu B, Tabor S, Richardson CC. (2014) Syn5 RNA polymerase synthesizes precise run-off RNA products. […]"}, "[3]": {"tested_on": "template for a 2.7 knt RNA or human mitochondrial tRNA^ProUGG", "assay": "2′-F-dNTP incorporation by Syn5 RNA polymerase Y564F", "assay_type": "biochemical", "description": "FIGS. 28A, 28B, 28C and 28D depict gels showing a preference for 2′-F-dC/UTP over rC/UTP by Syn5 RNAP-Y564F.\nSyn5 RNA polymerases containing Y564F and/or Y574F mutation were constructed using a known PCR mutagenesis method (see Higuchi et al., Nucleic Acids Res. 16:7351-7367 (1988) hereby incorporated by reference in its entirety), expressed and purified using known methods. The wild type gene background for the mutants was also modified, with the internal Syn5 promoter removed to reduce toxicity and increase the yield of the protein when expressed in E. coli. Purified proteins were analyzed by SDS-PAGE. The mutants were used to incorporate 2′-F-dNTPs as described below.\nThe reaction components were incubated at 37° C. for 4 hrs. 0.4 µl of the reaction mixture was loaded onto 2% agarose gel or 10% TBE gel and stained with ethidium bromide. Results are shown in FIG. 28A, FIG. 28B, FIG. 28C and FIG. 28D. The Y564F mutation does change the recognition of the 2′-group in the nucleotide substrates by Syn5 RNA polymerase. […] See FIG. 28A lane 4 vs 3; FIG. 28B lane 9-11 vs 6; FIG. 28C lane 11-13 vs 8)."}}, "note": "Entries after “also recorded” stand apart in the source; their conditions may differ.", "data": [{"molecule": "B1", "values": [{"measurement": "enzymatic activity versus wild-type", "setting": "[1]", "result": "same enzymatic activity as the wild-type Syn5 RNAP; also recorded: comparable enzymatic activity"}, {"measurement": "toxicity to host cells", "setting": "[2]", "result": "less toxic to host cells"}]}, {"molecule": "B2", "values": [{"measurement": "substrate preference 2′-F-dC/UTP versus rC/UTP", "setting": "[3]; Mg buffer, 37° C.", "result": "prefers 2′-F-dCTP and 2′-F-dUTP to canonical rCTP and rUTP"}, {"measurement": "synthesis of long 2′-F RNA", "setting": "[3]; low enzyme concentration", "result": "stably synthesizes long RNA containing 2′-F-dCMP and 2′-F-dUMP"}, {"measurement": "transcript with all four 2′-F-dNMPs", "setting": "[3]; template starting with C", "result": "Full-length transcript including all four 2′-F-dNMPs was synthesized"}, {"measurement": "discrimination to 2′-F-dATP and 2′-F-dGTP", "setting": "[3]; versus wild type", "result": "reduced"}]}]}
